# Reference: the nanobody polyreactivity screen of Harvey et al. (2022)
# Assay: yeast display, Sf9 membrane polyspecificity reagent, FACS + sequencing; frameworks hold sequencing errors
# Summary of the method: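 In a synthetic yeast display library (Saccharomyces cerevisiae BJ5465), nanobody expression was induced with galactose for 36–48 hours. FACS gates were set low and high (top ~1%) using anti-HA fluorescence for expression and streptavidin fluorescence for binding of the Sf9 membrane reagent. Each polyreactivity label is drawn from the gate of origin.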
row,Sequence,polyreactivity (PSR sort gate)
1,QVQLVESGGGLVQAGGSLRLSCAASGSTFAYYTMGWYRQAPGKERELVAAITSAGRTSYADSVKGRFTISRDNAKNTVYLQMKSLKPDDTAVYYCAKGRKPGYYYWGQGTQVTVSS,high polyreactivity
2,QVQLVESGGGLVQAGGSLRLSCAASGSTFCFNDMGWYIQAPGKEREFVAAISSIGGSTYYADSVKGRFKISRDNAKNTLYLQMNSLKPEDTAVYYCAVEVVRVYRYDYWGQGTQVTVSS,low polyreactivity
3,QVQLVESGGGLVQAGGSLRLSCAASGSTFCHYAMGWYRQAPGKERELVAAISWSGGSTSYADSVKGRFTISRDNAKNTVFLQMNSLIPEDTAVYYCNKRQEWFHFPYTRGYYWGQGTQVSVSS,low polyreactivity
4,QVQLVESGGGLVQAGGSLRLSCAASGSTFCRNAMGWYRQAPGKEREFVAVISISSGTTYADSVKGRFTISRDNAKNTVYLQMNSMKPEDTAVYYCAAAIGVYYIDYRYLGTVEYWGQGTQGTVSS,low polyreactivity
5,QVQLVESGGGLVQAGGSLRLSCAASGSTFCSYVMGWYRQAPGKERELVAAISSIGGSTYYADSVKGRFTISRDNAKNTVYLQMNSLKPEDTAVYYCAAEPPGSPYEGGYWGQGTQVTVSS,low polyreactivity
6,QVQLVESGGGLVQAGGSLRLSCAASGSTFCYYAMGWYRQAPGKERELLAAITRSGGRTYYADSVKGRFTISRDNAKNTVYLQMNSLKPEDTAGYYCAADSRVGFGRLYGYWGQGTQVTVSS,high polyreactivity
7,QVQLVESGGGLVQAGGSLRLSCAASGSTFDENAMGWYRQAPGKERELVAVISDSGGSTYYADSVKGRFTISRDYAKNTVYFQMNSLKPEDTAVYYCAKDVPPEYPTSSYDYWGQGSQVTVSS,low polyreactivity
8,QVQLVESGGGLVQAGGSLRLSCAASGSTFDFNAMGWSRQAPGKERELVAAITYSGGSTYYADSVKGRFTISRDNAKNTVYLKMNSLKPEDTAVYYCAAEDVYPGSIDMDYWGQGTQVTVSS,low polyreactivity
9,QVQLVESGGGLVQAGGSLRLSCAASGSTFDFYAMGLYRQAPGKERELVAAITSGGTTNYADSVKGRFTISRDNAKNTVYLQMNSLKPEDTAVYFCNAYYLGWYRVRAVTGYDYCGQGTQVTVSS,low polyreactivity
10,QVQLVESGGGLVQAGGSLRLSCAASGSTFDFYAMGWYRQAPGKERELVAAISWSAGSTYYADSVKGRFTISRDIAKNTVYLQMNSLKPEDTAVYYCNADYWGQGTQVTVSS,low polyreactivity
11,QVQLVESGGGLVQAGGSLRLSCAASGSTFDGNAMGWYRQAPGKERELVAAITWRDGSTSYADSVKGRFTISRDNAKNTVYLQMNSLKPEDTAVYYCAADYEVYQVASAFDYWGQGTQVTVSS,low polyreactivity
12,QVQLVESGGGLVQAGGSLRLSCAASGSTFDGYAMGWYRQAPGKERELVAAISRSGGRTYYADSVKGRFTISRDNAKNTVYLQMNSLKPEDTAVYYCAALYPYKREDYWGQGTQVTVSS,high polyreactivity
13,QVQLVESGGGLVQAGGSLRLSCAASGSTFDGYAMGWYRQAPGKERELVAAISSSGAYTYYADSVKGRFTISRDIAKNTVFLQMNSLKPEDTAVYYCNRVTYQQKNDYCGQGTQVTVSS,high polyreactivity
14,QVQLVESGGGLVQAGGSLRLSCAASGSTFDGYTMGWYRQAPGKERELVAGISWSGTSTYYADSVKGRFTISRDNAKNTVYLQMNSLKPEDTAVYYCAADRYWFRLYTAGVTHRFGYWGQGTQVTVSS,low polyreactivity
15,QVQLVESGGGLVQAGGSLRLSCAASGSTFDINTMGWYRQAPGKEREFVAAITDSDDSTYYADSVKGRFTISRDNAKNTVYLQMNSLKPEDTAVYYCAHDYDGYVWDTEYDYWGQGTQVTVSS,low polyreactivity
16,QVQLVESGGGLVQAGGSLRLSCAASGSTFDINTMGWYRQAPGKEREFVAAITDSDDSTYYADSVKGRFTISRDNAKNTVYLQMNSLKPEDTAVYYCNYDYWGQGTQVTVSS,low polyreactivity
17,QVQLVESGGGLVQAGGSLRLSCAASGSTFDKYPLGWYRQAPGKERELVAAITWGGGSTYYADSVKGRFTISRDNAKNTVYLQMNSLKPEDTAVYYCAAEQGSSVLYDSWGQGTQVTVSS,low polyreactivity
18,QVQLVESGGGLVQAGGSLRLSCAASGSTFDKYTMGWYRQAPGKERELVATISRSGTSTNYADSVKGRFTISRDNAKNTVYLQLNSLKPEDTAVYYCAAVMRWRDLFSEYYYWGQGTQVTVSS,high polyreactivity
19,QVQLVESGGGLVQAGGSLRLSCAASGSTFDLNAMGWYRQAPGKERELVARISSVGSTNYADSVKGRFTISRDNAKNTVYLQMNSLKPEDTAVYYCNAGFWDLYDYWGQGTQVTVSS,low polyreactivity
20,QVQLVESGGGLVQAGGSLRLSCAASGSTFDLNAMGWYRQAPGKERELVARITSSTGRTFYADSVKGRFTISRDNAKNTVYLQMNSLKPEDTAVYYCNTVGHGYSPPVNRSKMDYWGQGTQVTVSS,low polyreactivity
21,QVQLVESGGGLVQAGGSLRLSCAASGSTFDNYAMGWYRQAPGKERELVAVITQSGGITFYADSVKGRFTISRDNAKNTVYLQMNSLKPEDTAVYYCNVELDRSWYYYWGQGTQVTVSS,low polyreactivity
22,QVQLVESGGGLVQAGGSLRLSCAASGSTFDPNAMGWYRQAPAKERELVAAISYTGGRTYYADSVKGRFTISRDNAKNTVYLQMNSLKPEDTAVYYCAVLVVGSTTQDEPYFSGVEHDYWGQGTQVTVSS,low polyreactivity
